Assay results as given in patent US20100240056.

Tested on: EcR-B/VP16-USP heterodimer (Leptinotarsa decemlineata)
Experiment: EMSA
Conditions: reference band for densitometry; little change with agonist

hsp27 EcRE probe
binding signal: 1
